Assay results taken from US20150344570A1 (published 2015).

T1: FcγRIIa R extracellular domain with C-terminal His tag (human, UniProt P12318 34-217)
T1 construct: extracellular domain; also called FcgRIIa R; 2aR; not shown: His tag at the C terminus
T1 sequence (looked up): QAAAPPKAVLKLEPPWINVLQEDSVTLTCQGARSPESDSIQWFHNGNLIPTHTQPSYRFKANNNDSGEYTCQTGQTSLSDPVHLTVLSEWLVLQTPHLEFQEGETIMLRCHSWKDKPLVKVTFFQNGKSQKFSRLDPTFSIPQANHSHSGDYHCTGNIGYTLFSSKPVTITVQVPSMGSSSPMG

T2: FcγRIIb extracellular domain with C-terminal His tag (human, UniProt P31994 43-217)
T2 construct: extracellular domain; also called FcgRIIb; 2b; not shown: His tag at the C terminus
T2 sequence (looked up): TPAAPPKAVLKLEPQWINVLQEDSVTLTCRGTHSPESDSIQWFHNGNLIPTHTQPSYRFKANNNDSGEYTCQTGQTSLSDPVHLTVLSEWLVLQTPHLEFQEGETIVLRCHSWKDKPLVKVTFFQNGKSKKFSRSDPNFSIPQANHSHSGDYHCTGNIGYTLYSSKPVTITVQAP

B1: GpH7-B3 variant S337_02A/GpL16-k0 (antibody, human IgG1, kappa)
heavy: not shown
light: DIVMTQSPLSLPVTPGEPASISCQASESLVHSNRNTYLHWYLQKPGQSPQLLIYKVSNRFSGVPDRFSGSGSGTDFTLKISRVEAEDVGVYYCSQNTHVPPTFGQGTKVEIERTVAAPSVFIFPPSDEQLKSGTASVVCLLNNFYPREAKVQWKVDNALQSGNSQESVTEQDSKDSTYSLSSTLTLSKADYEKHKVYACEVTHQGLSSPVTKSFNRGEC
notes: homodimerized: alteration in both H chains; also called Ho Ab S337_02A
B2: GpH7-B3 variant K326_08L/GpL16-k0 (antibody, human IgG1, kappa)
heavy: not shown
light: B1 light
notes: homodimerized: alteration in both H chains; also called Ho Ab K326_08L
B3: GpH7-B3 variant A330_12R/GpL16-k0 (antibody, human IgG1, kappa)
heavy: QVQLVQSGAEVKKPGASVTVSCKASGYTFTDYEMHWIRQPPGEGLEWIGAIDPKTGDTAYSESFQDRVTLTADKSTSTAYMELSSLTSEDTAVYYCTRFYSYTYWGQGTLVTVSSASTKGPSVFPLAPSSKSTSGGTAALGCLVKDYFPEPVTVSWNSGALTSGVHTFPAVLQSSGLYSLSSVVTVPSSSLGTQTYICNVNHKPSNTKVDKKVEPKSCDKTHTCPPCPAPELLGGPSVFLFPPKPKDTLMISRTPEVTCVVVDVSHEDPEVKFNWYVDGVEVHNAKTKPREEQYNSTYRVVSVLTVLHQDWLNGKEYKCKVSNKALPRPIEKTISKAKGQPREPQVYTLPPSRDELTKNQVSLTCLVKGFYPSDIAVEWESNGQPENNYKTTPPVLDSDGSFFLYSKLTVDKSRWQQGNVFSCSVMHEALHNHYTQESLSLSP
light: B1 light
notes: homodimerized: alteration in both H chains; also called Ho Ab A330_12R
B4: GpH7-B3 variant P331_16H/GpL16-k0 (antibody, human IgG1, kappa)
heavy: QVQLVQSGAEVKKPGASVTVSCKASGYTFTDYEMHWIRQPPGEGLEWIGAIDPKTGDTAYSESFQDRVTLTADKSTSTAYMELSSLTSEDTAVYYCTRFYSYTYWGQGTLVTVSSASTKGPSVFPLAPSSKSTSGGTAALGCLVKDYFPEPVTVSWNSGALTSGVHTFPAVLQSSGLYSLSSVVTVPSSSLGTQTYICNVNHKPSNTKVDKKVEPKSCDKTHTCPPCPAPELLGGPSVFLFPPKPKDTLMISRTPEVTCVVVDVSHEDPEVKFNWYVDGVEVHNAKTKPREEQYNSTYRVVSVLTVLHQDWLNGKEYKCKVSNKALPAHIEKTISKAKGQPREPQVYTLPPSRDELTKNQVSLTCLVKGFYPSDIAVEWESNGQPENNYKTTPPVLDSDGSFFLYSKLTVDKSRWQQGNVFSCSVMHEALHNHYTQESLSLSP
light: B1 light
notes: homodimerized: alteration in both H chains; also called Ho Ab P331_16H
B5: GpH7-B3 variant S337_07I/GpL16-k0 (antibody, human IgG1, kappa)
heavy: not shown
light: B1 light
notes: homodimerized: alteration in both H chains; also called Ho Ab S337_07I
B6: GpH7-B3 variant S337_06M/GpL16-k0 (antibody, human IgG1, kappa)
heavy: not shown
light: B1 light
notes: homodimerized: alteration in both H chains; also called Ho Ab S337_06M
B7: GpH7-B3 variant K334_13S/GpL16-k0 (antibody, human IgG1, kappa)
heavy: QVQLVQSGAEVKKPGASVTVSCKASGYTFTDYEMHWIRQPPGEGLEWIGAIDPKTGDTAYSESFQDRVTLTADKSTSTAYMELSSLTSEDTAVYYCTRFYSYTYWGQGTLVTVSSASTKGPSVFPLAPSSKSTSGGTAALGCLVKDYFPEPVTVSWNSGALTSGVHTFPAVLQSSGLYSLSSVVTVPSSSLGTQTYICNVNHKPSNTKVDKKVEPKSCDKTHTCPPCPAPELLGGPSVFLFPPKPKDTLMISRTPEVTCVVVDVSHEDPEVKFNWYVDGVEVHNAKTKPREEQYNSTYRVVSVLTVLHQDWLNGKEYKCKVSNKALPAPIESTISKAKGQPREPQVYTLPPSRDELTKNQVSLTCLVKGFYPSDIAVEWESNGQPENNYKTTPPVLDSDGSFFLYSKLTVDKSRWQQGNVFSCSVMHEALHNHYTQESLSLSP
light: B1 light
notes: homodimerized: alteration in both H chains; also called Ho Ab K334_13S
B8: GpH7-B3 variant K326_20W/GpL16-k0 (antibody, human IgG1, kappa)
heavy: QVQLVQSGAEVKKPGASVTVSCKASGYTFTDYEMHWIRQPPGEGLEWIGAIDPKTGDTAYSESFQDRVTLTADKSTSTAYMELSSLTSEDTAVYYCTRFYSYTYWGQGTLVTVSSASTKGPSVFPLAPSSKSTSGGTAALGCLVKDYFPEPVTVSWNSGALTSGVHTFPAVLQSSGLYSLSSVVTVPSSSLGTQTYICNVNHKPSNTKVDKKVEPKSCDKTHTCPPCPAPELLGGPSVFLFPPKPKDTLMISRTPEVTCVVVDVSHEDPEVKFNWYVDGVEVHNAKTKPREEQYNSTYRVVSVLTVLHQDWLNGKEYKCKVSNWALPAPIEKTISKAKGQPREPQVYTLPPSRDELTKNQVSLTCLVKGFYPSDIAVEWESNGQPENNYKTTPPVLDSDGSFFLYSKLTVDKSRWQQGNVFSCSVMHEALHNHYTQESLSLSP
light: B1 light
notes: homodimerized: alteration in both H chains; also called Ho Ab K326_20W
B9: GpH7-B3 variant K334_05P/GpL16-k0 (antibody, human IgG1, kappa)
heavy: not shown
light: B1 light
notes: homodimerized: alteration in both H chains; also called Ho Ab K334_05P
B10: GpH7-B3 variant S324_06M/GpL16-k0 (antibody, human IgG1, kappa)
heavy: not shown
light: B1 light
notes: homodimerized: alteration in both H chains; also called Ho Ab S324_06M
B11: GpH7-B3 variant I332_06M/GpL16-k0 (antibody, human IgG1, kappa)
heavy: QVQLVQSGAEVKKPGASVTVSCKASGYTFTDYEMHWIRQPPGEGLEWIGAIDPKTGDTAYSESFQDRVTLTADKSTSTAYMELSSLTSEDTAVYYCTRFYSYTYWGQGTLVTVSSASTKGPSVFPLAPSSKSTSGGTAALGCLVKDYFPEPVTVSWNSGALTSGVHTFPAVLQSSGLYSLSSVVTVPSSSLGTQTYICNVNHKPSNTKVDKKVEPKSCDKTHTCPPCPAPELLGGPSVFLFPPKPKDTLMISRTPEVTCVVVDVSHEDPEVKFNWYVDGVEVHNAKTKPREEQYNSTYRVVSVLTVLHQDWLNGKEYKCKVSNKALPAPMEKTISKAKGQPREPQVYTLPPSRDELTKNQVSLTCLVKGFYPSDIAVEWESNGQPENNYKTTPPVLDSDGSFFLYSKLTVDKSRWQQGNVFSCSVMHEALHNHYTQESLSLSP
light: B1 light
notes: homodimerized: alteration in both H chains; also called Ho Ab I332_06M
B12: GpH7-B3 variant L235_20W/GpL16-k0 (antibody, human IgG1, kappa)
heavy: not shown
light: B1 light
notes: homodimerized: alteration in both H chains; also called Ho Ab L235_20W
B13: GpH7-B3 variant A330_01G/GpL16-k0 (antibody, human IgG1, kappa)
heavy: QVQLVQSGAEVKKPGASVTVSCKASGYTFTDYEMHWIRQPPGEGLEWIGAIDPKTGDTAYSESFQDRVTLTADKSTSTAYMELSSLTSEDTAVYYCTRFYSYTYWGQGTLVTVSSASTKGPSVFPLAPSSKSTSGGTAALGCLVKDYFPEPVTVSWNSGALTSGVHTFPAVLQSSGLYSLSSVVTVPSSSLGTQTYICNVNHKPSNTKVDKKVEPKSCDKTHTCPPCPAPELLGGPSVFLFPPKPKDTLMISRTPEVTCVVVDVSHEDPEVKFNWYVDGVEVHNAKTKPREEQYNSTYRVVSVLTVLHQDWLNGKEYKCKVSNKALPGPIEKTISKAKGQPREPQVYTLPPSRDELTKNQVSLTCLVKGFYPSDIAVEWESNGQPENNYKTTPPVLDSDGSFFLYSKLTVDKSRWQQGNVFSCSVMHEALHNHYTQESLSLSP
light: B1 light
notes: homodimerized: alteration in both H chains; also called Ho Ab A330_01G
B14: GpH7-B3 variant K326_04F/GpL16-k0 (antibody, human IgG1, kappa)
heavy: not shown
light: B1 light
notes: homodimerized: alteration in both H chains; also called Ho Ab K326_04F
B15: GpH7-B3 variant H268_01G/GpL16-k0 (antibody, human IgG1, kappa)
heavy: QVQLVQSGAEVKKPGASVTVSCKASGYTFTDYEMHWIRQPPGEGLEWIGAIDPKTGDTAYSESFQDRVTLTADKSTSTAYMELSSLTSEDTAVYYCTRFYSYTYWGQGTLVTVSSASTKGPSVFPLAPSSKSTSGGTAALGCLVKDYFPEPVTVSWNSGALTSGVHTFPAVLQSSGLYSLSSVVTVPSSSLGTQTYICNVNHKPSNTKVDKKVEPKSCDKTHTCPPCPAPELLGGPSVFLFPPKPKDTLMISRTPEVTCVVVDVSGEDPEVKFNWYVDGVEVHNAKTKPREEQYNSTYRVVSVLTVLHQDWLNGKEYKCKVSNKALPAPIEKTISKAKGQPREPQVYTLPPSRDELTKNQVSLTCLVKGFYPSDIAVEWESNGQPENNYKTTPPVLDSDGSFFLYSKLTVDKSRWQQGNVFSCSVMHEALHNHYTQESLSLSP
light: B1 light
notes: homodimerized: alteration in both H chains; also called Ho Ab H268_01G
B16: GpH7-B3 variant K334_08L/GpL16-k0 (antibody, human IgG1, kappa)
heavy: not shown
light: B1 light
notes: homodimerized: alteration in both H chains; also called Ho Ab K334_08L
B17: GpH7-A5/GpH7-B3 variant Y296_20W/GpL16-k0 (antibody, human IgG1, kappa)
heavy 1: not shown
heavy 2: not shown
light: B1 light
notes: also called He Ab Y296_20W
B18: GpH7-B3 variant P331_15Y/GpL16-k0 (antibody, human IgG1, kappa)
heavy: not shown
light: B1 light
notes: homodimerized: alteration in both H chains; also called Ho Ab P331_15Y
B19: GpH7-B3 variant S239_08L/GpL16-k0 (antibody, human IgG1, kappa)
heavy: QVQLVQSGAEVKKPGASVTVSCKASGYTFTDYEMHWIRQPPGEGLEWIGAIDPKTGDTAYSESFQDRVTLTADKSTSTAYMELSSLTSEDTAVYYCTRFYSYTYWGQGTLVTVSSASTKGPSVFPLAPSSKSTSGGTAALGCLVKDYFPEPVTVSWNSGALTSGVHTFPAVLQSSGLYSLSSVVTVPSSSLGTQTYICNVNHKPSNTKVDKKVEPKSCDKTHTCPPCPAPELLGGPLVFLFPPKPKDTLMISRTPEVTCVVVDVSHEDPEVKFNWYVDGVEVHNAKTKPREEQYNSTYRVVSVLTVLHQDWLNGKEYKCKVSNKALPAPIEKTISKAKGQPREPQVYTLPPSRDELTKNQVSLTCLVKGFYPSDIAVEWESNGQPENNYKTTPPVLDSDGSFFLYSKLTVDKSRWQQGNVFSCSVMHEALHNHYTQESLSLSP
light: B1 light
notes: homodimerized: alteration in both H chains; also called Ho Ab S239_08L
B20: GpH7-B3 variant K334_02A/GpL16-k0 (antibody, human IgG1, kappa)
heavy: not shown
light: B1 light
notes: homodimerized: alteration in both H chains; also called Ho Ab K334_02A
B21: GpH7-B3 variant S298_08L/GpL16-k0 (antibody, human IgG1, kappa)
heavy: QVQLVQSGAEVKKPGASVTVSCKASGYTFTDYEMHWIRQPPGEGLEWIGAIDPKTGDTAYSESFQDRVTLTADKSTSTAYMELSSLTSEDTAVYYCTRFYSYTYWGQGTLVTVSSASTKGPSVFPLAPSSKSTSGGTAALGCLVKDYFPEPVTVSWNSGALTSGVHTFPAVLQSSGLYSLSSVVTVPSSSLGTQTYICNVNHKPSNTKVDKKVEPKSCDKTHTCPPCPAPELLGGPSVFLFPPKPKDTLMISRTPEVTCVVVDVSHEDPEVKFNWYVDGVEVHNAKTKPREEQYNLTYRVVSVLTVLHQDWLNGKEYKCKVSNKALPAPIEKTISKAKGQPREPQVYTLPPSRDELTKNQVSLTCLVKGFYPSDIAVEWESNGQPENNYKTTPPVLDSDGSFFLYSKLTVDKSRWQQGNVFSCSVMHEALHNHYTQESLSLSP
light: B1 light
notes: homodimerized: alteration in both H chains; also called Ho Ab S298_08L
B22: GpH7-B3 variant P331_02A/GpL16-k0 (antibody, human IgG1, kappa)
heavy: not shown
light: B1 light
notes: homodimerized: alteration in both H chains; also called Ho Ab P331_02A
B23: GpH7-B3 variant S337_03V/GpL16-k0 (antibody, human IgG1, kappa)
heavy: not shown
light: B1 light
notes: homodimerized: alteration in both H chains; also called Ho Ab S337_03V
B24: GpH7-B3 variant P331_20W/GpL16-k0 (antibody, human IgG1, kappa)
heavy: not shown
light: B1 light
notes: homodimerized: alteration in both H chains; also called Ho Ab P331_20W
B25: GpH7-B3 variant P271_08L/GpL16-k0 (antibody, human IgG1, kappa)
heavy: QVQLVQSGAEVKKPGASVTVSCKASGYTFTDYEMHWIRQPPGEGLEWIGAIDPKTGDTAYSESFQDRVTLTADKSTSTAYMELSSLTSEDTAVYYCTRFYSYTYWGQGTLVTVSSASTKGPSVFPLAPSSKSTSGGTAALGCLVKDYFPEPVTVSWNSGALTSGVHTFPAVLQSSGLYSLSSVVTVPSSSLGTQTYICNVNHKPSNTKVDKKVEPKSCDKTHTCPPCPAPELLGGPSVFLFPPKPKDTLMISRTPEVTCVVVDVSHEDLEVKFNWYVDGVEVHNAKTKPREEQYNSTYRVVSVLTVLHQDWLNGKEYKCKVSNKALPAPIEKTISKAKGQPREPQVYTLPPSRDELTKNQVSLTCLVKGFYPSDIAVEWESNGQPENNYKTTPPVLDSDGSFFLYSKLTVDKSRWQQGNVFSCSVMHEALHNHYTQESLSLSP
light: B1 light
notes: homodimerized: alteration in both H chains; also called Ho Ab P271_08L
B26: GpH7-B3 variant S239_10E/GpL16-k0 (antibody, human IgG1, kappa)
heavy: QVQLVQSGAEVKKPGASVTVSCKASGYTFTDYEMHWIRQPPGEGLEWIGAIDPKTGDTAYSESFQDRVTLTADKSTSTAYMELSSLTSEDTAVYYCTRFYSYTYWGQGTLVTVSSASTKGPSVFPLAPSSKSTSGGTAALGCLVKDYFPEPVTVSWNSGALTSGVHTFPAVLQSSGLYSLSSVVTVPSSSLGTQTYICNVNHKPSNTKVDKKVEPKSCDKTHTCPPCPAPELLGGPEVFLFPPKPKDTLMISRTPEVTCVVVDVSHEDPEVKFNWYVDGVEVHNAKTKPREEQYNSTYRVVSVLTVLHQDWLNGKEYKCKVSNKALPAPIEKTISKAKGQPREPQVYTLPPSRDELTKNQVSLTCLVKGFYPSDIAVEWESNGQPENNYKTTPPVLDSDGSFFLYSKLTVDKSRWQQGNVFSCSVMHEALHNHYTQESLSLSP
light: B1 light
notes: homodimerized: alteration in both H chains; also called Ho Ab S239_10E

Experiments:
[1] = biological target: T1, FcγRIIa R extracellular domain with …; experiment: SPR (Biacore), relative FcγRIIa R binding, GpH7-B3/GpL16-k0 = 100
Protocol: (§1) Analysis of interaction between objective antibody and the FcγR was carried out using Biacore T100 (GE Healthcare). HBS-EP+ (GE Healthcare) was used as the running buffer, and the measurement temperature was set to 25° C. Chips produced by immobilizing the antigen peptide by the amine coupling method to a Series S Sencor Chip CM5 (GE Healthcare), or alternatively, chips produced by allowing preliminarily biotinylated antigen peptides to interact with and immobilize onto a Series S Sensor Chip SA (certified) (GE Healthcare) were used. Antibodies of interest were captured onto an antigen peptide-immobilized chip, and allowed to interact to each FcγR diluted with running buffer. To regenerate and repeatedly use the chip, the antibodies captured on the chip were washed off by reacting 10 mM glycine-HCl, pH 1.5.

[2] = biological target: T2, FcγRIIb extracellular domain with …; experiment: SPR, relative binding, HeCon Ab = 100
Protocol: as §1

| Binder | Ho/Con_2aR [1] | He/Con_2b [2] |
| --- | --- | --- |
| B1 | 102 % of control |  |
| B2 | 131 % of control |  |
| B3 | 101 % of control |  |
| B4 | 100 % of control |  |
| B5 | 103 % of control |  |
| B6 | 101 % of control |  |
| B7 | 106 % of control |  |
| B8 | 120 % of control |  |
| B9 | 102 % of control |  |
| B10 | 118 % of control |  |
| B11 | 105 % of control |  |
| B12 | 114 % of control |  |
| B13 | 106 % of control |  |
| B14 | 133 % of control |  |
| B15 | 122 % of control |  |
| B16 | 105 % of control |  |
| B17 |  | 103 % of control |
| B18 | 105 % of control |  |
| B19 | 106 % of control |  |
| B20 | 100 % of control |  |
| B21 | 101 % of control |  |
| B22 | 102 % of control |  |
| B23 | 102 % of control |  |
| B24 | 102 % of control |  |
| B25 | 102 % of control |  |
| B26 | 122 % of control |  |
